Results: patent US20250027073A1
Several values for one entry are separate records, joined by “and”; a condition that tells them apart may be missing. Equal entries are not always repeated. Where two headings read alike, the source gives them in different places.

Legend:
[1] = biological target: Anti-Her2 BCR on B cells (from Trastuzumab vector, with PDGFR TM); test: flow cytometry; GFP viruses displaying HER2 on HER2-BCR+ B cells
[2] = biological target: anti-SAR2-RBD BCR on B cells (RBD antibody of PDB 7BWJ with human IgG1 Fc and PDGFR TM); test: flow cytometry; GFP viruses displaying RBD on RBD-BCR+ B cells
[3] = biological target: NY-ESO-1 peptide on HLA-A*02:01 (human)
[4] = biological target: peptide on HLA-A*02:01 (human)
[5] = biological target: peptide on HLA-A*02:01 (human); remark: listed apart in the source
[6] = biological target: CMV-pp65495-503-TCR, on Jurkat T cells
[7] = biological target: Flu-m158-66-TCR, on Jurkat T cells
[8] = biological target: NY-ESO-1 TCR, clone 1G4 mutated version (a95:LY) with high affinity, on Jurkat T cells
[9] = biological target: NY-ESO-1 TCR, clone 1G4 mutated version (a95:LY) with high affinity, on Jurkat T cells; remark: listed apart in the source
[10] = biological target: NY-ESO-1 TCR, clone 1G4 mutated version (a95:LY) with high affinity, on Jurkat T cells; remark: listed apart in the source
[11] = biological target: CMV-pp65495-503-TCR, on Jurkat T cells; remark: listed apart in the source
[12] = biological target: CMV-pp65495-503-TCR, on Jurkat T cells; remark: listed apart in the source
[13] = biological target: pp65495-503 tetramer-positive primary human T cells (their TCRs)
[14] = biological target: pp65495-503 tetramer-positive primary human T cells (their TCRs); remark: listed apart in the source
[15] = biological target: CMV-pp65495-503-TCR, on Jurkat T cells; test: cell-based or functional assay
[16] = biological target: NY-ESO-1 TCR, clone 1G4 mutated version (a95:LY) with high affinity, on Jurkat T cells; test: cell-based or functional assay

truncated Her2 (a1-a700) with its native TM domain, displayed on the lentiviral surface (from UniProt P04626 23-700) (receptor)
percent of B cells detected (GFP+) [1]: 76%

Receptor Binding Domain (RBD) from SARS-CoV-2 spike protein fused with ICAM1 TM domain, displayed on (from UniProt P0DTC2 319-541)
percent of B cells labeled (GFP+) [2]: 88%

NY-ESO-1 TCR, clone 1G4, wild-type (1G4 wt)
Kd [3]: 10.8 µM and 84.9 µM
Kd [4]: 10.8 µM and 84.9 µM
Kd [5]: 10.8 µM and 84.9 µM

HPV16 E782-91 peptide presented by HLA-A2, single-chain trimer of pMHC displayed on the lentiviral s (from UniProt P03129 82-91; P61769 21-119) (peptide-MHC)
percent of T cells labeled (GFP+) [6]: 1%
percent of T cells labeled (GFP+) [7]: 1%
percent of T cells labeled (GFP+) [8]: 1%

NY-ESO-1157-165 (…) presented by HLA-A0201, single-chain trimer of pMHC displayed on the lentiviral surface (from UniProt P61769 21-119) (peptide-MHC)
percent of T cells GFP+ [8]: > 87%
percent of T cells labeled (GFP+) [8]: 88.2%
percent of TCR-T cells stained [9]: 95.7%
percent of antigen+ cells matched with the corresponding TCR sequence [10]: 97.4%

CMV pp65495-503 (…) presented by HLA-A0201, single-chain trimer of pMHC displayed on the lentiviral surface (from UniProt P61769 21-119) (peptide-MHC)
percent of T cells GFP+ [6]: > 87%
percent of tetramer positive cells that were GFP+ [11]: > 90%
percent of antigen+ cells matched with the corresponding TCR sequence [12]: 99.8%
percent of tetramer-positive T cells labeled [13]: 83%
percent of tetramer-positive T cells recovered [13]: 98%
percent of tetramer+ T cells labeled [14]: 99%
GFP transgene expression after infection (cargo delivery) [15]: 82%
depletion of on-target T cells after HSV-TK gene delivery and GCV treatment, against GFP gene delivery [15]: 8 fold
GFP transgene expression after infection (cargo delivery) [16]: 0.22%
